Results taken from US20190309284A1, “METHODS AND KITS FOR DYNAMIC TARGETED HYPERMUTATION” (Massachusetts Institute of Technology, priority 2018, published 2019).

What was measured:
[1] = promoter strength, Registry of Standard Biological Parts (Anderson collection); cited from earlier work
[2] = test system: Kan^R gene with ACG in place of ATG start codon on reporter plasmid; test: Start codon reversion mutation assay, kanamycin resistance (on-target); assay type: cell-based, E. coli; settings: 24 h growth
Experimental: (§1) Mutation assay: To test mutagenesis rates, the control and mutagenic strains (Strep^R) carrying reporter plasmids (Amp^R) were streaked out on LB agar with 100 μg/mL streptomycin and 100 μg/mL ampicillin and grown at 37° C. for 24 hours. Then single colonies were picked in triplicate for each sample and grown in 5 mL LB with 100 μg/mL streptomycin,100 μg/mL ampicillin and 25 mM arabinose (with 10 μg/mL chloramphenicol if the strain contains MP6) at 37° C., 250 r.p.m. for 24 hours. Then 1 mL aliquots of each overnight were pelleted at 6000×g for 3 minutes and resuspended in 1 mL LB to remove arabinose. Then 50 μL of each resuspension was plated on LB agar plates with 50 μg/mL tetrazolium chloride and 200 μg/mL kanamycin, 20 μg/mL tetracycline, 100 μg/mL fosfomycin or 100 μg/mL rifampicin unless otherwise stated. 50 μL of a 100,000-fold dilution of each culture was also plated on LB agar with 100 μg/mL streptomycin, 100 μg/mL ampicillin and 50 μg/mL tetrazolium chloride. After incubating the plates at 37° C. for 48 hours, they were imaged by inverting the plates onto transparencies and scanning on a document scanner at a resolution of 400 d.p.i. The colonies were then counted using the software OpenCFU (3.9.0) (Geissmann Q., PLoS One. 2013; 8(2): e54072), with minimum colony radius set to 3, the maximum colony radius set to 50 and the regular threshold set to 4.
(§2) Mutation Assay: To assess mutagenesis rates, the control (Δung, rApo1, drApo1, and drApo1−T7; TABLE 8) and mutagenic strains (MutaT7 and MP6; TABLE 8) (Strep^R) carrying reporter plasmids (AmpR) were streaked on LB agar with 100 μg/mL streptomycin and 100 μg/mL ampicillin and grown at 37° C. for 24 h in order to obtain clones. Single colonies were picked in triplicate for each sample and used to inoculate 5 mL LB with 100 μg/mL streptomycin, 100 μg/mL ampicillin, and 25 mM arabinose (with 10 μg/mL chloramphenicol for the MP6 strain, TABLE 8), then shaken at 250 r.p.m. and 37° C. for 24 h to accumulate mutations during growth. 1 mL aliquots of each culture were pelleted at 6000×g for 3 min and resuspended in 1 mL LB to remove arabinose. Each resuspension was plated on LB agar plates with 50 μg/mL tetrazolium chloride (a metabolic contrast dye for visualizing colonies) and the antibiotics indicated below to analyze mutation rates and viability: • 50 μL of a 100,000-fold dilution of each resuspension was plated on LB agar with 100 μg/mL streptomycin, 100 μg/mL ampicillin, and 50 μg/mL tetrazolium chloride. For samples from the MP6 strain, owing to lower growth of that strain, 50 μL of a 10,000-fold dilution of each resuspension was plated to obtain a more accurate count. The colony counts from these plates were used to calculate the cell viability (i.e., the number of live, ampicillin resistant cells) in CFU/mL for each sample (FIG. 13D). • 50 μL of each resuspension was plated on LB agar plates with 200 μg/mL kanamycin and 50 μg/mL tetrazolium chloride. The colony counts from these plates were used to calculate the number of kanamycin resistant mutants in CFU/mL for each sample (FIG. 13E). The number of kanamycin resistant mutants in CFU/mL was divided by the number of live ampicillin resistant cells in CFU/mL for each sample to obtain the kanamycin resistant mutation frequency (FIG. 13B). • 50 μL of each resuspension was plated on LB agar plates with 20 μg/mL tetracycline and 50 μg/mL tetrazolium chloride. The colony counts from these plates were used to calculate the number of tetracycline resistant mutants in CFU/mL for each sample. The number of tetracycline resistant mutants in CFU/mL was divided by the number of live ampicillin resistant cells in CFU/mL for each sample to obtain the tetracycline resistant mutation frequency (FIG. 13B). • 50 μL of each resuspension was plated on LB agar plates with 100 μg/mL rifampicin and 50 μg/mL tetrazolium chloride. […]

[3] = test system: Tet^R gene with inactive ACG start codon downstream of Kan^R on reporter plasmid; test: Start codon reversion mutation assay, tetracycline resistance (downstream of target); assay type: cell-based, E. coli; settings: 24 h growth
Experimental: as §1, §2

[4] = test system: E. coli genome; test: Off-target mutagenesis, fosfomycin resistance assay; assay type: cell-based; settings: 24 h growth
Experimental: as §1, §2

[5] = test system: E. coli genome; test: Off-target mutagenesis, rifampicin resistance assay; assay type: cell-based; settings: 24 h growth
Experimental: as §1, §2

[6] = test system: E. coli; test: Cell viability (live ampicillin resistant cells) in mutation assay; assay type: cell-based; settings: 24 h growth
Experimental: as §1
Mutation Assay: To assess mutagenesis rates, the control (Δung, rApo1, drApo1, and drApo1−T7; TABLE 8) and mutagenic strains (MutaT7 and MP6; TABLE 8) (Strep^R) carrying reporter plasmids (AmpR) were streaked on LB agar with 100 μg/mL streptomycin and 100 μg/mL ampicillin and grown at 37° C. for 24 h in order to obtain clones. Single colonies were picked in triplicate for each sample and used to inoculate 5 mL LB with 100 μg/mL streptomycin, 100 μg/mL ampicillin, and 25 mM arabinose (with 10 μg/mL chloramphenicol for the MP6 strain, TABLE 8), then shaken at 250 r.p.m. and 37° C. for 24 h to accumulate mutations during growth. […]

[7] = reporter plasmid No T7 promoter + filler DNA
[8] = reporter plasmid T7 promoter + filler DNA
[9] = reporter plasmid T7 promoter + terminator array

## BBa_J23104: Anderson collection promoter, SEQ ID NO: 6 (DNA TTGACAGCTAGCTCAGTCCTAGGTATTGTGCTAGC; listed as DNA, chemistry not fully specified)
[1]
  Measured Strength: 0.72

## BBa_J23110: Anderson collection promoter, SEQ ID NO: 12 (DNA TTTACGGCTAGCTCAGTCCTAGGTACAATGCTAGC; listed as DNA, chemistry not fully specified)
[1]
  Measured Strength: 0.33

## BBa_J23100: Anderson collection promoter, SEQ ID NO: 2 (DNA TTGACGGCTAGCTCAGTCCTAGGTACAGTGCTAGC; listed as DNA, chemistry not fully specified)
[1]
  Measured Strength: 1

## BBa_J23111: Anderson collection promoter, SEQ ID NO: 13 (DNA TTGACGGCTAGCTCAGTCCTAGGTATAGTGCTAGC; listed as DNA, chemistry not fully specified)
[1]
  Measured Strength: 0.58

## BBa_J23107: Anderson collection promoter, SEQ ID NO: 9 (DNA TTTACGGCTAGCTCAGCCCTAGGTATTATGCTAGC; listed as DNA, chemistry not fully specified)
[1]
  Measured Strength: 0.36

## BBa_J23117: Anderson collection promoter, SEQ ID NO: 19 (DNA TTGACAGCTAGCTCAGTCCTAGGGATTGTGCTAGC; listed as DNA, chemistry not fully specified)
[1]
  Measured Strength: 0.06

## BBa_J23102: Anderson collection promoter, SEQ ID NO: 4 (DNA TTGACAGCTAGCTCAGTCCTAGGTACTGTGCTAGC; listed as DNA, chemistry not fully specified)
[1]
  Measured Strength: 0.86

## BBa_J23108: Anderson collection promoter, SEQ ID NO: 10 (DNA CTGACAGCTAGCTCAGTCCTAGGTATAATGCTAGC; listed as DNA, chemistry not fully specified)
[1]
  Measured Strength: 0.51

## BBa_J23101: Anderson collection promoter, SEQ ID NO: 3 (DNA TTTACAGCTAGCTCAGTCCTAGGTATTATGCTAGC; listed as DNA, chemistry not fully specified)
[1]
  Measured Strength: 0.70

## BBa_J23118: Anderson collection promoter, SEQ ID NO: 20 (DNA TTGACGGCTAGCTCAGTCCTAGGTATTGTGCTAGC; listed as DNA, chemistry not fully specified)
[1]
  Measured Strength: 0.56

## BBa_J23109: Anderson collection promoter, SEQ ID NO: 11 (DNA TTTACAGCTAGCTCAGTCCTAGGGACTGTGCTAGC; listed as DNA, chemistry not fully specified)
[1]
  Measured Strength: 0.04

## BBa_J23114: Anderson collection promoter, SEQ ID NO: 16 (DNA TTTATGGCTAGCTCAGTCCTAGGTACAATGCTAGC; listed as DNA, chemistry not fully specified)
[1]
  Measured Strength: 0.10

## BBa_J23103: Anderson collection promoter, SEQ ID NO: 5 (DNA CTGATAGCTAGCTCAGTCCTAGGGATTATGCTAGC; listed as DNA, chemistry not fully specified)
[1]
  Measured Strength: 0.01

## BBa_J23115: Anderson collection promoter, SEQ ID NO: 17 (DNA TTTATAGCTAGCTCAGCCCTTGGTACAATGCTAGC; listed as DNA, chemistry not fully specified)
[1]
  Measured Strength: 0.15

## BBa_J23113: Anderson collection promoter, SEQ ID NO: 15 (DNA CTGATGGCTAGCTCAGTCCTAGGGATTATGCTAGC; listed as DNA, chemistry not fully specified)
[1]
  Measured Strength: 0.01

## BBa_J23105: Anderson collection promoter, SEQ ID NO: 7 (DNA TTTACGGCTAGCTCAGTCCTAGGTACTATGCTAGC; listed as DNA, chemistry not fully specified)
[1]
  Measured Strength: 0.24

## BBa_J23106: Anderson collection promoter, SEQ ID NO: 8 (DNA TTTACGGCTAGCTCAGTCCTAGGTATAGTGCTAGC; listed as DNA, chemistry not fully specified)
[1]
  Measured Strength: 0.47

## BBa_J23116: Anderson collection promoter, SEQ ID NO: 18 (DNA TTGACAGCTAGCTCAGTCCTAGGGACTATGCTAGC; listed as DNA, chemistry not fully specified)
[1]
  Measured Strength: 0.16

## BBa_J23112: Anderson collection promoter, SEQ ID NO: 14 (DNA CTGATAGCTAGCTCAGTCCTAGGGATTATGCTAGC; listed as DNA, chemistry not fully specified)
[1]
  Measured Strength: 0.00

B1: drApoI (protein, UniProt P38483 1-229, looked up, variant E63Q)
C->U-editing enzyme APOBEC-1: MSSETGPVAVDPTLRRRIEPHEFEVFFDPRELRKETCLLYEINWGGRHSIWRHTSQNTNKHVQVNFIEKFTTERYFCPNTRCSITWFLSWSPCGECSRAITEFLSRYPHVTLFIYIARLYHHADPRNRQGLRDLISSGVTIQIMTEQESGYCWRNFVNYSPSNEAHWPRYPHLWVRLYVLELYCIILGLPPCLNILRRKQPQLTFFTIALQSCHYQRLPPHILWATGLK
[2]; [7]
  Kan resistance Frequency: 3.8E−8
  Kan resistant CFU/mL: 6.0E+1 CFU/mL
[2]; [8]
  Kan resistance Frequency: 5.2E−7
  Kan resistant CFU/mL: 6.5E+2 CFU/mL
[2]; [9]
  Kan resistance Frequency: 6.6E−7
  Kan resistant CFU/mL: 1.2E+3 CFU/mL
[3]; [7]
  Tet resistance Frequency: 1.1E−7
  Tet resistant CFU/mL: 1.8E+2 CFU/mL
[3]; [8]
  Tet resistance Frequency: 4.6E−7
  Tet resistant CFU/mL: 6.3E+2 CFU/mL
[3]; [9]
  Tet resistance Frequency: 2.1E−7
  Tet resistant CFU/mL: 3.7E+2 CFU/mL
[4]; [7]
  Fos resistance Frequency: 2.0E−6
  Fos resistant CFU/mL: 3.3E+3 CFU/mL
[4]; [8]
  Fos resistance Frequency: 2.7E−6
  Fos resistant CFU/mL: 3.5E+3 CFU/mL
[4]; [9]
  Fos resistance Frequency: 1.9E−6
  Fos resistant CFU/mL: 3.4E+3 CFU/mL
[5]; [7]
  Rif resistance Frequency: 4.5E−7
  Rif resistant CFU/mL: 7.6E+2 CFU/mL
[5]; [8]
  Rif resistance Frequency: 3.0E−7
  Rif resistant CFU/mL: 4.0E+2 CFU/mL
[5]; [9]
  Rif resistance Frequency: 3.4E−7
  Rif resistant CFU/mL: 5.9E+2 CFU/mL
[6]; [7]
  Amp resistant CFU/mL (cell viability): 1.6E+9 CFU/mL
[6]; [8]
  Amp resistant CFU/mL (cell viability): 1.3E+9 CFU/mL
[6]; [9]
  Amp resistant CFU/mL (cell viability): 1.8E+9 CFU/mL
